Reference: publication PMC4610397 (Cellular and molecular bioengineering, 2015)
Ends that are not written are not given here. * marks the point of attachment. LacNAc = N-acetyllactosamine (disaccharide N-linked to the Asn side chain), CC(=O)N[C@@H]1[C@@H](O)[C@H](O[C@@H]2O[C@H](CO)[C@H](O)[C@H](O)[C@H]2O)[C@@H](CO)O[C@H]1*; βGlcNAc = CC(=O)N[C@@H]1[C@@H](O)[C@H](O)[C@@H](CO)O[C@H]1*

T1: Q11
T1 peptide: Ac-QQKFQFQFEQQ-NH2


Key:
[1] = target: the molecule itself; test: circular dichroism + transmission electron microscopy
[2] = target: T1, Q11; test: co-sedimentation

Row | binding result [2] | Binder | binding result [1]
1 | binds | N(βGlcNAc)SGSGQQKFQFQFEQQ-NH2 [GlcNAc-Q11] | binds
2 |  | N(LacNAc)SGSGQQKFQFQFEQQ-NH2 [LacNAc-Q11] | binds
